# In IntAct's records for PubMed 26977880:
# B1: Tumor necrosis factor ligand superfamily member 14 (Homo sapiens), O43557 (parent)
# chain: MEESVVRPSVFVVDGQTDIPFTRLGRSHRRQSCSVARVGLGLLLLLMGAGLAVQGWFLLQLHWRLGEMVTRLPDGPAGSWEQLIQERRSHEVNPAAHLTGANSSLTGSGGPLLWETQLGLAFLRGLSYHDGALVVTKAGYYYIYSKVQLGGVGCPLGLASTITHGLYKRTPRYPEELELLVSQQSPCGRATSSSRVWWDSSFLGGVVHLEAGEKVVVRVLDERLVRLRDGTRSYFGAFMV
# Variants of: B1
# Conditions: with tnr3_mouse Ltbr
row,Variant,effect of a mutation on the interaction
1,MEESVVRPSVFVVDGQTDIPFTRLGRSHRRQSCSVARVGLGLLLLLMGAGLAVQGWFLLQLHWRLGEMVTRLPDGPAGSWEQLIQERRSHEVNPAAHLTGANSSLTGSGGPLLWETQLGLAFLRGLSYHDGALVVTKTGYYYIYSKVQLGGVGCPLGLAGTITHGLYKRTPRYPEELELLVSQQSPCGRATSSSRVWWDSSFLGGVVHLEAGEKVVVRVLGKRLVRLRDGTRSYFGAFMV [A138T;S160G;D221G;E222K],causing an interaction
